Data published in the supplement of paper PMC10567573.

B1: GNB5 (parent)
chain: YYPSGDAFASGSDDATCRLYDLRA
B2: BRF1 (parent)
chain: CTACGSVLEDNIIVSEVQFVESSG

Variants of: B1
Assay: protein stability index of a GFP-peptide fusion (GPS, HEK-293T) (PSI 1-6); higher = more stable
Settings: c terminus: a fixed tail appended
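Further: lentivirally expressed fusions sorted by FACS into six bins by GFP to DsRed ratio, PSI derived from sequencing read proportions per bin multiplied by bin number.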

Protein stability index, by site and new letter:
S10: C 2.01, R 2.1, E 3, I 1.79, K 2.25, N 2.64, W 2.23, V 2.18, P 2.46, M 2.16, Y 2.4, Q 2.54, D 3.28, G 2.36, H 2.56, A 2.25, T 2.68, F 2.03, L 2.05
D14: F 2.12, T 2.02, R 1.9, S 1.94, K 1.93, W 1.22, N 1.98, Y 1.58, I 2.65, Q 2.27, H 2.2, E 2.55, G 2.52, P 2.12, V 2.27, C 2.39, M 2.21, A 1.91, L 1.92
T16: H 2.37, W 1.91, N 2.69, M 2.31, Y 2.52, R 2.94, L 2.32, K 3.11, G 2.46, V 1.95, Q 2.88, S 2.42, E 2.79, F 2.32, I 2.18, D 2.91, P 2.54, C 2.27, A 2.96
C17: T 2.61, E 3.36, P 2.62, S 2.85, W 2.48, V 2.85, I 2.89, K 2.69, D 3.3, H 2.56, M 2.46, A 2.42, F 2.07, G 2.85, Y 2.23, R 2.62, L 2.87, N 2.8, Q 2.9
L19: D 3.34, N 2.72, R 2.55, G 2.9, I 2.3, P 2.61, Y 2.57, W 2.46, A 2.87, H 2.44, S 2.87, M 2.5, E 3.39, V 2.56, C 2.66, K 2.77, F 2.33, T 3.07, Q 2.65
A15: W 2.56, R 2.24, G 2.87, L 2.15, N 2.61, T 2.26, V 2.72, Q 2.62, M 2.36, F 2.1, Y 2.21, C 1.98, H 2.05, K 2.35, P 2.63, D 3.4, S 2.25, E 2.75, I 1.97
L22: S 3.08, H 3.09, V 2.62, T 2.73, I 2.78, R 2.75, C 3.17, P 2.85, A 2.8, K 3.07, N 2.84, Q 2.55, D 3.03, Y 2.68, E 3.34, M 2.49, G 2.65, F 2.64, W 2.26
A9: W 1.72, Y 2.04, V 2.32, T 2.36
G11: Y 1.98, D 2.74, C 2.09, A 2.23, E 2.81, R 1.83, H 2.44, V 1.94, L 2.89, P 2.31, N 2.64, F 1.99, M 1.66, I 1.89, K 1.94, T 2.28, S 2.08, W 2.11, Q 2.14
R18: I 2.42, V 2.67, M 2.2, L 2.45, C 2.29, P 3.13, N 2.54, G 2.85, H 3.23, W 2.15, A 3.06, Y 2.49, Q 2.85, K 3.04, F 2.84, D 3.35, T 2.77, E 3.25, S 2.88
R23: V 2.03, I 2.37, N 2.33, Q 2.47, W 2.15, T 2.18, G 2.65, C 2.27, E 3.14, F 2.27, L 2.03, H 2.87, P 2.86, Y 2.01, M 2.37, A 2.47, K 2.58, D 3.01, S 2.81
D21: G 2.2, H 2.31, R 1.99, K 2.43, A 2.18, T 1.99, L 2.02, S 1.89, F 1.5, C 1.58, E 2.47, M 2.23, Q 2.3, I 2.41, Y 1.61, W 2.25, P 2.52, N 1.99, V 1.8
S12: M 2.13, A 2.76, T 2.79, H 2.92, L 2.16, I 2.24, P 2.17, E 2.89, V 2.04, N 2.41, F 2.41, G 1.74, Y 2.98, D 3.23, W 2.74, K 2.21, Q 2.08, C 2.98, R 2.17
A24: S 2.32, I 1.9, G 2.7, R 2.41, F 2.07, W 2, H 2.24, C 2.3, P 2.34, E 2.27, M 2.85, L 2.14, T 2.86, D 2.62, Q 3.01, N 2.79, K 2.43, Y 2.22, V 1.78
Y20: V 2.9, Q 2.88, H 2.42, P 3.32, K 2.88, R 3.13, N 2.95, M 2.77, S 2.87, D 3.13, E 3.15, G 2.63, A 2.73, T 2.65, W 2.33, I 2.84, C 2.26, L 2.6, F 2.4
D13: W 1.65, K 2.25, T 1.76, G 1.89, M 1.66, L 1.93, C 1.56, E 2.27, P 2.19, Y 2.11, V 1.78, I 2.27, Q 2.2, F 1.63, S 2.28, N 2.38, A 1.86, R 1.88, H 2.23

Variants of: B2
Assay: as above
Settings: c terminus: a fixed tail appended

Protein stability index: each site, then its substitutions
T2: E 3.25, Y 2.21, F 2.12, W 2.54, N 3.02, V 1.86, I 2.52, H 3, L 2.75, D 3.42, R 3.17, S 2.87, M 2.78, P 2.72, G 2.33, K 3.48, Q 3.48, A 3.64
C1: Y 3.18, M 3.6, W 2.51, P 3.29, E 4.86, R 3.83, A 3.88, Q 4.3, D 4.46, H 3.6, G 4.18, L 3.56, S 4.13, I 1.46, T 4.16, V 2.2, N 3.65, F 2.63
A3: G 2.37, I 2.06, L 2.08, K 4.04, E 3.6, H 2.56, F 2.4, D 2.28, M 2.87
